# Results: patent US20220402983A1 (Janssen / Centocor, published 2022)
# *1 amine or outer side, *2 acyl side, *3 side chain or, on linkers, in order; H or OH if unused. Bridges are numbered along the chain shown (N, C = ends). [ ]: non-standard residue; d: D form. (N-(imidazol-2-yl)methyl)Asn = N-(imidazol-2-yl)methyl-asparagine, O=C(C[C@H](N[*:1])C(=O)[*:2])NCc1ncc[nH]1; (N-(3-aminophenyl))Asn = N-(3-aminophenyl)-asparagine, O=C(C[C@H](N[*:1])C(=O)[*:2])Nc1cccc(N[*:3])c1; (N-(3-Pyz))Asn = N-pyrazol-3-yl-asparagine, O=C(C[C@H](N[*:1])C(=O)[*:2])Nc1cc[nH]n1; dPhe(3-NH2) = D-3-aminophenylalanine, O=C([C@@H](Cc1cccc(N[*:3])c1)N[*:1])[*:2]; Trp(7-Me) = Cc1cccc2c(C[C@H](N)C(=O)O)c[nH]c12; (N-Pyr)Asn = N-pyrrolidin-3-yl-asparagine; dPhe(4-NH2) = Nc1ccc(C[C@@H](N)C(=O)O)cc1; (N-Pip)Asn = N-piperidin-4-yl-asparagine; 2Nal = N[C@@H](Cc1ccc2ccccc2c1)C(=O)O; AEF = NCCOc1ccc(C[C@H](N)C(=O)O)cc1; αMeF = C[C@](N)(Cc1ccccc1)C(=O)O; 3Pal = N[C@@H](Cc1cccnc1)C(=O)O; Pen = CC(C)(S)[C@H](N)C(=O)O; αMeK = C[C@](N)(CCCCN)C(=O)O; αMeC = C[C@](N)(CS)C(=O)O; Thp = NC1(C(=O)O)CCOCC1; Abu = CC[C@H](N)C(=O)O
# T1: human IL-23R (interleukin-23 receptor) (human, UniProt Q5VWK5 24-629)
# T1 sequence (looked up): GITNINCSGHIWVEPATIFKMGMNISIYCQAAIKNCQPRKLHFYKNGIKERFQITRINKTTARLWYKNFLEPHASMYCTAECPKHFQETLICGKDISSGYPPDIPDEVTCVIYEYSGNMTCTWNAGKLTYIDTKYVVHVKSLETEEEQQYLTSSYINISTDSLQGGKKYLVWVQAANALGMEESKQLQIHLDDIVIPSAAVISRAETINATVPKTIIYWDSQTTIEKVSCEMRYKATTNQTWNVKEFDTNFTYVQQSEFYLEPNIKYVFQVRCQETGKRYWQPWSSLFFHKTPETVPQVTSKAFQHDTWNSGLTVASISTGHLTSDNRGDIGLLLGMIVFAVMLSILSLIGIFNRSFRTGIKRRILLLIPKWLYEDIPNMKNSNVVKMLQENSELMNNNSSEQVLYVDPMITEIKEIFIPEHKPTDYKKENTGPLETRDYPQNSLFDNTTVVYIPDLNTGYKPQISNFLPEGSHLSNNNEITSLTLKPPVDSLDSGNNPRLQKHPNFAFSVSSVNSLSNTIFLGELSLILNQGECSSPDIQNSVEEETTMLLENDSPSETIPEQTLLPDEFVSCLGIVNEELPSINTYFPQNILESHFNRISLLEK
# B1: Compound No. 119 (peptide)
# peptide: CNTXQCFXKKNF
# modifications: Ac-[Cys]-N-T-[W(7-Me)]-Q-[aMeCys]-Phe[4-(2-aminoethoxy)]-[2-Nal]-[a-MeLys]-[Lys(Ac)]-N-[a-MePhe]-NH2; cyclized: Cys-aMeCys disulfide bond
# B2: Compound No. 115 (peptide)
# peptide: Ac-[Pen]NT[Trp(7-Me)]K(Ac)[Pen][AEF][2Nal][αMeK]K(Ac)N[αMeF][dPhe(3-NH2)]-NH2
# modifications: disulfide 1-6
# SMILES: CC(=O)NCCCC[C@@H]1NC(=O)[C@H](Cc2c[nH]c3c(C)cccc23)NC(=O)[C@H]([C@@H](C)O)NC(=O)[C@H](CC(N)=O)NC(=O)[C@@H](NC(C)=O)C(C)(C)SSC(C)(C)[C@@H](C(=O)N[C@@H](Cc2ccc(OCCN)cc2)C(=O)N[C@@H](Cc2ccc3ccccc3c2)C(=O)N[C@@](C)(CCCCN)C(=O)N[C@@H](CCCCNC(C)=O)C(=O)N[C@@H](CC(N)=O)C(=O)N[C@@](C)(Cc2ccccc2)C(=O)N[C@H](Cc2cccc(N)c2)C(N)=O)NC1=O
# B3: Compound No. 121 (peptide)
# peptide: Ac-CNTWK(Ac)[αMeC][AEF][2Nal][αMeK]K(Ac)N[Thp]-NH2
# modifications: disulfide 1-6
# SMILES: CC(=O)NCCCC[C@@H]1NC(=O)[C@H](Cc2c[nH]c3ccccc23)NC(=O)[C@H]([C@@H](C)O)NC(=O)[C@H](CC(N)=O)NC(=O)[C@@H](NC(C)=O)CSSC[C@@](C)(C(=O)N[C@@H](Cc2ccc(OCCN)cc2)C(=O)N[C@@H](Cc2ccc3ccccc3c2)C(=O)N[C@@](C)(CCCCN)C(=O)N[C@@H](CCCCNC(C)=O)C(=O)N[C@@H](CC(N)=O)C(=O)NC2(C(N)=O)CCOCC2)NC1=O
# B4: Compound No. 117 (peptide)
# peptide: Ac-CNT[Trp(7-Me)]K(Ac)[αMeC][AEF][2Nal][αMeK]K(Ac)N[Thp]-NH2
# modifications: disulfide 1-6
# SMILES: CC(=O)NCCCC[C@@H]1NC(=O)[C@H](Cc2c[nH]c3c(C)cccc23)NC(=O)[C@H]([C@@H](C)O)NC(=O)[C@H](CC(N)=O)NC(=O)[C@@H](NC(C)=O)CSSC[C@@](C)(C(=O)N[C@@H](Cc2ccc(OCCN)cc2)C(=O)N[C@@H](Cc2ccc3ccccc3c2)C(=O)N[C@@](C)(CCCCN)C(=O)N[C@@H](CCCCNC(C)=O)C(=O)N[C@@H](CC(N)=O)C(=O)NC2(C(N)=O)CCOCC2)NC1=O
# B5: Compound No. 114 (peptide)
# peptide: Ac-[Pen]NT[Trp(7-Me)]K(Ac)[Pen][AEF][2Nal][αMeK]K(Ac)N[αMeF][dPhe(4-NH2)]-NH2
# modifications: disulfide 1-6
# SMILES: CC(=O)NCCCC[C@@H]1NC(=O)[C@H](Cc2c[nH]c3c(C)cccc23)NC(=O)[C@H]([C@@H](C)O)NC(=O)[C@H](CC(N)=O)NC(=O)[C@@H](NC(C)=O)C(C)(C)SSC(C)(C)[C@@H](C(=O)N[C@@H](Cc2ccc(OCCN)cc2)C(=O)N[C@@H](Cc2ccc3ccccc3c2)C(=O)N[C@@](C)(CCCCN)C(=O)N[C@@H](CCCCNC(C)=O)C(=O)N[C@@H](CC(N)=O)C(=O)N[C@@](C)(Cc2ccccc2)C(=O)N[C@H](Cc2ccc(N)cc2)C(N)=O)NC1=O
# B6: Compound No. 124 (peptide)
# peptide: Ac-[dR][Pen]NT[Trp(7-Me)]K(Ac)[Pen][AEF][2Nal][Thp]EN[αMeF]-NH2
# modifications: disulfide 2-7
# SMILES: CC(=O)NCCCC[C@@H]1NC(=O)[C@H](Cc2c[nH]c3c(C)cccc23)NC(=O)[C@H]([C@@H](C)O)NC(=O)[C@H](CC(N)=O)NC(=O)[C@@H](NC(=O)[C@@H](CCCNC(=N)N)NC(C)=O)C(C)(C)SSC(C)(C)[C@@H](C(=O)N[C@@H](Cc2ccc(OCCN)cc2)C(=O)N[C@@H](Cc2ccc3ccccc3c2)C(=O)NC2(C(=O)N[C@@H](CCC(=O)O)C(=O)N[C@@H](CC(N)=O)C(=O)N[C@@](C)(Cc3ccccc3)C(N)=O)CCOCC2)NC1=O
# B7: Compound No. 122 (peptide)
# peptide: Ac-CNTWK(Ac)[αMeC][AEF][2Nal][αMeK]K(Ac)N[αMeF]-NH2
# modifications: disulfide 1-6
# SMILES: CC(=O)NCCCC[C@@H]1NC(=O)[C@H](Cc2c[nH]c3ccccc23)NC(=O)[C@H]([C@@H](C)O)NC(=O)[C@H](CC(N)=O)NC(=O)[C@@H](NC(C)=O)CSSC[C@@](C)(C(=O)N[C@@H](Cc2ccc(OCCN)cc2)C(=O)N[C@@H](Cc2ccc3ccccc3c2)C(=O)N[C@@](C)(CCCCN)C(=O)N[C@@H](CCCCNC(C)=O)C(=O)N[C@@H](CC(N)=O)C(=O)N[C@@](C)(Cc2ccccc2)C(N)=O)NC1=O
# B8: Compound No. 137 (peptide)
# peptide: Ac-[dR][Pen]QTWQ[Pen][AEF][2Nal][Thp]EN[(N-(imidazol-2-yl)methyl)Asn]-NH2
# modifications: disulfide 2-7
# SMILES: CC(=O)N[C@H](CCCNC(=N)N)C(=O)N[C@@H]1C(=O)N[C@@H](CCC(N)=O)C(=O)N[C@@H]([C@@H](C)O)C(=O)N[C@@H](Cc2c[nH]c3ccccc23)C(=O)N[C@@H](CCC(N)=O)C(=O)N[C@H](C(=O)N[C@@H](Cc2ccc(OCCN)cc2)C(=O)N[C@@H](Cc2ccc3ccccc3c2)C(=O)NC2(C(=O)N[C@@H](CCC(=O)O)C(=O)N[C@@H](CC(N)=O)C(=O)N[C@@H](CC(=O)NCc3ncc[nH]3)C(N)=O)CCOCC2)C(C)(C)SSC1(C)C
# B9: Compound No. 116 (peptide)
# peptide: Ac-[Pen]NT[Trp(7-Me)]K(Ac)[Pen][AEF][2Nal][αMeK]K(Ac)N[αMeF][3Pal]-NH2
# modifications: disulfide 1-6
# SMILES: CC(=O)NCCCC[C@@H]1NC(=O)[C@H](Cc2c[nH]c3c(C)cccc23)NC(=O)[C@H]([C@@H](C)O)NC(=O)[C@H](CC(N)=O)NC(=O)[C@@H](NC(C)=O)C(C)(C)SSC(C)(C)[C@@H](C(=O)N[C@@H](Cc2ccc(OCCN)cc2)C(=O)N[C@@H](Cc2ccc3ccccc3c2)C(=O)N[C@@](C)(CCCCN)C(=O)N[C@@H](CCCCNC(C)=O)C(=O)N[C@@H](CC(N)=O)C(=O)N[C@@](C)(Cc2ccccc2)C(=O)N[C@@H](Cc2cccnc2)C(N)=O)NC1=O
# B10: Compound No. 130 (peptide)
# peptide: Ac-[dR][Pen]QTWQ[Pen][AEF][2Nal][Thp]EN[(N-(3-aminophenyl))Asn]-NH2
# modifications: disulfide 2-7
# SMILES: CC(=O)N[C@H](CCCNC(=N)N)C(=O)N[C@@H]1C(=O)N[C@@H](CCC(N)=O)C(=O)N[C@@H]([C@@H](C)O)C(=O)N[C@@H](Cc2c[nH]c3ccccc23)C(=O)N[C@@H](CCC(N)=O)C(=O)N[C@H](C(=O)N[C@@H](Cc2ccc(OCCN)cc2)C(=O)N[C@@H](Cc2ccc3ccccc3c2)C(=O)NC2(C(=O)N[C@@H](CCC(=O)O)C(=O)N[C@@H](CC(N)=O)C(=O)N[C@@H](CC(=O)Nc3cccc(N)c3)C(N)=O)CCOCC2)C(C)(C)SSC1(C)C
# B11: Compound No. 133 (peptide)
# peptide: Ac-[dR][Pen]QTWQ[Pen][AEF][2Nal][Thp]EN[(N-(3-Pyz))Asn]-NH2
# modifications: disulfide 2-7
# SMILES: CC(=O)N[C@H](CCCNC(=N)N)C(=O)N[C@@H]1C(=O)N[C@@H](CCC(N)=O)C(=O)N[C@@H]([C@@H](C)O)C(=O)N[C@@H](Cc2c[nH]c3ccccc23)C(=O)N[C@@H](CCC(N)=O)C(=O)N[C@H](C(=O)N[C@@H](Cc2ccc(OCCN)cc2)C(=O)N[C@@H](Cc2ccc3ccccc3c2)C(=O)NC2(C(=O)N[C@@H](CCC(=O)O)C(=O)N[C@@H](CC(N)=O)C(=O)N[C@@H](CC(=O)Nc3cc[nH]n3)C(N)=O)CCOCC2)C(C)(C)SSC1(C)C
# B12: Compound No. 120 (peptide)
# peptide: CNTXQCFXKKNX
# modifications: Ac-[Cys]-N-T-[W(7-Me)]-Q-[aMeCys]-Phe[4-(2-aminoethoxy)]-[2-Nal]-[a-MeLys]-[Lys(Ac)]-N-[THP]-NH2; cyclized: Cys-aMeCys disulfide bond
# B13: Compound No. 118 (peptide)
# peptide: Ac-CNT[Trp(7-Me)]K(Ac)[αMeC][AEF][2Nal][αMeK]K(Ac)N[αMeF]-NH2
# modifications: disulfide 1-6
# SMILES: CC(=O)NCCCC[C@@H]1NC(=O)[C@H](Cc2c[nH]c3c(C)cccc23)NC(=O)[C@H]([C@@H](C)O)NC(=O)[C@H](CC(N)=O)NC(=O)[C@@H](NC(C)=O)CSSC[C@@](C)(C(=O)N[C@@H](Cc2ccc(OCCN)cc2)C(=O)N[C@@H](Cc2ccc3ccccc3c2)C(=O)N[C@@](C)(CCCCN)C(=O)N[C@@H](CCCCNC(C)=O)C(=O)N[C@@H](CC(N)=O)C(=O)N[C@@](C)(Cc2ccccc2)C(N)=O)NC1=O
# Molecular target: T1, human IL-23R (interleukin-23 receptor)
# Assay: cell-based or functional assay
row,Binder,PBMC pSTAT3 IC50 (nM)
1,B1,5.3 nM
2,Ac-[dR][Pen]QTWQ[Pen][AEF][2Nal][Thp]EN[(N-Pip)Asn]-NH2 (disulfide 2-7) [Compound No. 127],48 nM
3,B2,39 nM
4,Ac-[dR][Pen]QTWQ[Pen][AEF][2Nal][Thp]EN[(N-Pyr)Asn]-NH2 (disulfide 2-7) [Compound No. 128],51 nM
5,B3,41 nM
6,B4,7.1 nM
7,B5,12 nM
8,B6,11 nM
9,B7,54 nM
10,B8,14 nM
11,Ac-[dR][Abu]QTWQC[AEF][2Nal][Thp]EN[αMeF]-NH2 (thioether 2-7) [Compound No. 123],11 nM
12,B9,20 nM
13,B10,9.2 nM
14,B11,21 nM
15,B12,4.9 nM
16,B13,30 nM
